Numbered stars: 1 amine (or outer) side, 2 acyl side, 3 side chain; on linkers, the order of the positions; unused ones are H or OH. Side chains are listed from the residue outwards. Ends that are not written are not given here. * marks the point of attachment. γGlu = O=C(O)[C@H](CCC(=O)[*:2])N[*:1]; Palmitoyl = CCCCCCCCCCCCCCCC(=O)*
T1: human glucose-dependent insulinotropic peptide (gastric inhibitory polypeptide) receptor (human) (UniProt P48546)
T1 sequence (looked up): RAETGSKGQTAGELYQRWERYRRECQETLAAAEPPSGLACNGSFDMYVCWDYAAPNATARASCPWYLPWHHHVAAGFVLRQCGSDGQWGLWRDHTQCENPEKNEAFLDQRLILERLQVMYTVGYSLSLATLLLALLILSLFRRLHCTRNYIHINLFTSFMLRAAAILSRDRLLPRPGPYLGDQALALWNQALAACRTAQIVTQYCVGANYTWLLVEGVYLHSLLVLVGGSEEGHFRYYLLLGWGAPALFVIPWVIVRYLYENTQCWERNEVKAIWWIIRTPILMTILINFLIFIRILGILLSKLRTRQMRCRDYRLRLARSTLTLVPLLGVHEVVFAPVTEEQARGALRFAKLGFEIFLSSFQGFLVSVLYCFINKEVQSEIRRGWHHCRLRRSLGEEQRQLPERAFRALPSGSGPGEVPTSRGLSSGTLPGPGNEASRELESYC

B1: g670 (peptide)
peptide: HSQGTFTSDYSKYK([γGlu-Palmitoyl])DSRSAQDFVQWLVAGG-NH2
modifications: N-terminus assumed
SMILES: CCCCCCCCCCCCCCCC(=O)N[C@@H](CCC(=O)NCCCC[C@H](NC(=O)[C@H](Cc1ccc(O)cc1)NC(=O)[C@H](CCCCN)NC(=O)[C@H](CO)NC(=O)[C@H](Cc1ccc(O)cc1)NC(=O)[C@H](CC(=O)O)NC(=O)[C@H](CO)NC(=O)[C@@H](NC(=O)[C@H](Cc1ccccc1)NC(=O)[C@@H](NC(=O)CNC(=O)[C@H](CCC(N)=O)NC(=O)[C@H](CO)NC(=O)[C@@H](N)Cc1c[nH]cn1)[C@@H](C)O)[C@@H](C)O)C(=O)N[C@@H](CC(=O)O)C(=O)N[C@@H](CO)C(=O)N[C@@H](CCCNC(=N)N)C(=O)N[C@@H](CO)C(=O)N[C@@H](C)C(=O)N[C@@H](CCC(N)=O)C(=O)N[C@@H](CC(=O)O)C(=O)N[C@@H](Cc1ccccc1)C(=O)N[C@H](C(=O)N[C@@H](CCC(N)=O)C(=O)N[C@@H](Cc1c[nH]c2ccccc12)C(=O)N[C@@H](CC(C)C)C(=O)N[C@H](C(=O)N[C@@H](C)C(=O)NCC(=O)NCC(N)=O)C(C)C)C(C)C)C(=O)O
B2: g335 (peptide)
peptide: HSQGTFTSDYSKYLDSK([γGlu-Palmitoyl])RAQDFVQWLVAGG-NH2
modifications: N-terminus assumed
SMILES: CCCCCCCCCCCCCCCC(=O)N[C@@H](CCC(=O)NCCCC[C@H](NC(=O)[C@H](CO)NC(=O)[C@H](CC(=O)O)NC(=O)[C@H](CC(C)C)NC(=O)[C@H](Cc1ccc(O)cc1)NC(=O)[C@H](CCCCN)NC(=O)[C@H](CO)NC(=O)[C@H](Cc1ccc(O)cc1)NC(=O)[C@H](CC(=O)O)NC(=O)[C@H](CO)NC(=O)[C@@H](NC(=O)[C@H](Cc1ccccc1)NC(=O)[C@@H](NC(=O)CNC(=O)[C@H](CCC(N)=O)NC(=O)[C@H](CO)NC(=O)[C@@H](N)Cc1c[nH]cn1)[C@@H](C)O)[C@@H](C)O)C(=O)N[C@@H](CCCNC(=N)N)C(=O)N[C@@H](C)C(=O)N[C@@H](CCC(N)=O)C(=O)N[C@@H](CC(=O)O)C(=O)N[C@@H](Cc1ccccc1)C(=O)N[C@H](C(=O)N[C@@H](CCC(N)=O)C(=O)N[C@@H](Cc1c[nH]c2ccccc12)C(=O)N[C@@H](CC(C)C)C(=O)N[C@H](C(=O)N[C@@H](C)C(=O)NCC(=O)NCC(N)=O)C(C)C)C(C)C)C(=O)O
B3: g679 (peptide)
peptide: HGQGTFTSDYSKYLDSK([γGlu-Palmitoyl])RAQDFVEWLVAGG-NH2
modifications: N-terminus assumed
SMILES: CCCCCCCCCCCCCCCC(=O)N[C@@H](CCC(=O)NCCCC[C@H](NC(=O)[C@H](CO)NC(=O)[C@H](CC(=O)O)NC(=O)[C@H](CC(C)C)NC(=O)[C@H](Cc1ccc(O)cc1)NC(=O)[C@H](CCCCN)NC(=O)[C@H](CO)NC(=O)[C@H](Cc1ccc(O)cc1)NC(=O)[C@H](CC(=O)O)NC(=O)[C@H](CO)NC(=O)[C@@H](NC(=O)[C@H](Cc1ccccc1)NC(=O)[C@@H](NC(=O)CNC(=O)[C@H](CCC(N)=O)NC(=O)CNC(=O)[C@@H](N)Cc1c[nH]cn1)[C@@H](C)O)[C@@H](C)O)C(=O)N[C@@H](CCCNC(=N)N)C(=O)N[C@@H](C)C(=O)N[C@@H](CCC(N)=O)C(=O)N[C@@H](CC(=O)O)C(=O)N[C@@H](Cc1ccccc1)C(=O)N[C@H](C(=O)N[C@@H](CCC(=O)O)C(=O)N[C@@H](Cc1c[nH]c2ccccc12)C(=O)N[C@@H](CC(C)C)C(=O)N[C@H](C(=O)N[C@@H](C)C(=O)NCC(=O)NCC(N)=O)C(C)C)C(C)C)C(=O)O
B4: g678 (peptide)
peptide: HGQGTFTSDYSKYLDSK([γGlu-Palmitoyl])RAEDFVQWLVAGG-NH2
modifications: N-terminus assumed
SMILES: CCCCCCCCCCCCCCCC(=O)N[C@@H](CCC(=O)NCCCC[C@H](NC(=O)[C@H](CO)NC(=O)[C@H](CC(=O)O)NC(=O)[C@H](CC(C)C)NC(=O)[C@H](Cc1ccc(O)cc1)NC(=O)[C@H](CCCCN)NC(=O)[C@H](CO)NC(=O)[C@H](Cc1ccc(O)cc1)NC(=O)[C@H](CC(=O)O)NC(=O)[C@H](CO)NC(=O)[C@@H](NC(=O)[C@H](Cc1ccccc1)NC(=O)[C@@H](NC(=O)CNC(=O)[C@H](CCC(N)=O)NC(=O)CNC(=O)[C@@H](N)Cc1c[nH]cn1)[C@@H](C)O)[C@@H](C)O)C(=O)N[C@@H](CCCNC(=N)N)C(=O)N[C@@H](C)C(=O)N[C@@H](CCC(=O)O)C(=O)N[C@@H](CC(=O)O)C(=O)N[C@@H](Cc1ccccc1)C(=O)N[C@H](C(=O)N[C@@H](CCC(N)=O)C(=O)N[C@@H](Cc1c[nH]c2ccccc12)C(=O)N[C@@H](CC(C)C)C(=O)N[C@H](C(=O)N[C@@H](C)C(=O)NCC(=O)NCC(N)=O)C(C)C)C(C)C)C(=O)O
B5: g336 (peptide)
peptide: HSQGTFTSDYSKYLDSK([γGlu-γGlu-Palmitoyl])RAQDFVQWLVAGG-NH2
modifications: N-terminus assumed
SMILES: CCCCCCCCCCCCCCCC(=O)N[C@@H](CCC(=O)N[C@@H](CCC(=O)NCCCC[C@H](NC(=O)[C@H](CO)NC(=O)[C@H](CC(=O)O)NC(=O)[C@H](CC(C)C)NC(=O)[C@H](Cc1ccc(O)cc1)NC(=O)[C@H](CCCCN)NC(=O)[C@H](CO)NC(=O)[C@H](Cc1ccc(O)cc1)NC(=O)[C@H](CC(=O)O)NC(=O)[C@H](CO)NC(=O)[C@@H](NC(=O)[C@H](Cc1ccccc1)NC(=O)[C@@H](NC(=O)CNC(=O)[C@H](CCC(N)=O)NC(=O)[C@H](CO)NC(=O)[C@@H](N)Cc1c[nH]cn1)[C@@H](C)O)[C@@H](C)O)C(=O)N[C@@H](CCCNC(=N)N)C(=O)N[C@@H](C)C(=O)N[C@@H](CCC(N)=O)C(=O)N[C@@H](CC(=O)O)C(=O)N[C@@H](Cc1ccccc1)C(=O)N[C@H](C(=O)N[C@@H](CCC(N)=O)C(=O)N[C@@H](Cc1c[nH]c2ccccc12)C(=O)N[C@@H](CC(C)C)C(=O)N[C@H](C(=O)N[C@@H](C)C(=O)NCC(=O)NCC(N)=O)C(C)C)C(C)C)C(=O)O)C(=O)O
B6: g381 (peptide)
peptide: HSEGTFTSDYSKYLDSK([γGlu-Palmitoyl])RAQDFVQWLVAGG-NH2
modifications: N-terminus assumed
SMILES: CCCCCCCCCCCCCCCC(=O)N[C@@H](CCC(=O)NCCCC[C@H](NC(=O)[C@H](CO)NC(=O)[C@H](CC(=O)O)NC(=O)[C@H](CC(C)C)NC(=O)[C@H](Cc1ccc(O)cc1)NC(=O)[C@H](CCCCN)NC(=O)[C@H](CO)NC(=O)[C@H](Cc1ccc(O)cc1)NC(=O)[C@H](CC(=O)O)NC(=O)[C@H](CO)NC(=O)[C@@H](NC(=O)[C@H](Cc1ccccc1)NC(=O)[C@@H](NC(=O)CNC(=O)[C@H](CCC(=O)O)NC(=O)[C@H](CO)NC(=O)[C@@H](N)Cc1c[nH]cn1)[C@@H](C)O)[C@@H](C)O)C(=O)N[C@@H](CCCNC(=N)N)C(=O)N[C@@H](C)C(=O)N[C@@H](CCC(N)=O)C(=O)N[C@@H](CC(=O)O)C(=O)N[C@@H](Cc1ccccc1)C(=O)N[C@H](C(=O)N[C@@H](CCC(N)=O)C(=O)N[C@@H](Cc1c[nH]c2ccccc12)C(=O)N[C@@H](CC(C)C)C(=O)N[C@H](C(=O)N[C@@H](C)C(=O)NCC(=O)NCC(N)=O)C(C)C)C(C)C)C(=O)O
B7: g384 (peptide)
peptide: HXQGTFTSDYSKYLDSKRAQDFVQWLVAGG
modifications: Aib at 2 (written X); K(gE-palm) at 17; C-terminal amide
B8: g702 (peptide)
peptide: HSQGTFTSDYSK([γGlu-Palmitoyl])YLDSERAQDFVQWLVAGG-NH2
modifications: N-terminus assumed
SMILES: CCCCCCCCCCCCCCCC(=O)N[C@@H](CCC(=O)NCCCC[C@H](NC(=O)[C@H](CO)NC(=O)[C@H](Cc1ccc(O)cc1)NC(=O)[C@H](CC(=O)O)NC(=O)[C@H](CO)NC(=O)[C@@H](NC(=O)[C@H](Cc1ccccc1)NC(=O)[C@@H](NC(=O)CNC(=O)[C@H](CCC(N)=O)NC(=O)[C@H](CO)NC(=O)[C@@H](N)Cc1c[nH]cn1)[C@@H](C)O)[C@@H](C)O)C(=O)N[C@@H](Cc1ccc(O)cc1)C(=O)N[C@@H](CC(C)C)C(=O)N[C@@H](CC(=O)O)C(=O)N[C@@H](CO)C(=O)N[C@@H](CCC(=O)O)C(=O)N[C@@H](CCCNC(=N)N)C(=O)N[C@@H](C)C(=O)N[C@@H](CCC(N)=O)C(=O)N[C@@H](CC(=O)O)C(=O)N[C@@H](Cc1ccccc1)C(=O)N[C@H](C(=O)N[C@@H](CCC(N)=O)C(=O)N[C@@H](Cc1c[nH]c2ccccc12)C(=O)N[C@@H](CC(C)C)C(=O)N[C@H](C(=O)N[C@@H](C)C(=O)NCC(=O)NCC(N)=O)C(C)C)C(C)C)C(=O)O

Biological target: T1, human glucose-dependent insulinotropic peptide (gastric inhibitory polypeptide) receptor (human)
Experiment: cell-based or functional assay

Row | cAMP EC50 (assay 1) [pM] | Binder
1 | 14900 | B1
2 | 582000 | B2
3 | 117000 | B3
4 | 123000 | B4
5 | 19600 | B5
6 | 545000 | B6
7 | 17000 | B7

Biological target: human GLP-1 receptor (human, UniProt P43220 24-463)
Experiment: cell-based or functional assay

Sequence of human GLP-1 receptor (P43220 24-463): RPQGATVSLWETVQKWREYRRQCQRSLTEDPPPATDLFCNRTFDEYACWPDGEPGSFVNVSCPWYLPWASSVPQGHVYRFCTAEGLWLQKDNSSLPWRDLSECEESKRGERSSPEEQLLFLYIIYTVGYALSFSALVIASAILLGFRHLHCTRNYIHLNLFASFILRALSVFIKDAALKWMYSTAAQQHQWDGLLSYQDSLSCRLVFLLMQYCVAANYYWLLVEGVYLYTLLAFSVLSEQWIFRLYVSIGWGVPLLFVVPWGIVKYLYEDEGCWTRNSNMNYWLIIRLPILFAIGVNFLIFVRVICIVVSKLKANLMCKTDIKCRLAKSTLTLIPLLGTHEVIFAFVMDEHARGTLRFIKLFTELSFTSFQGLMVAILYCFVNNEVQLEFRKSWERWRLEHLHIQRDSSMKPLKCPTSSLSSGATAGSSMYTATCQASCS

Row | cAMP EC50 (assay 1) [pM] | Binder
8 | 20.3 | B1
9 | 73.3 | B2
10 | 135 | B3
11 | 106 | B4
12 | 36.6 | B5
13 | 3350 | B8
14 | 90.8 | B6
15 | 27.2 | B7

Biological target: human glucagon receptor (human, UniProt P47871 26-477)
Experiment: cell-based or functional assay

Sequence of human glucagon receptor (P47871 26-477): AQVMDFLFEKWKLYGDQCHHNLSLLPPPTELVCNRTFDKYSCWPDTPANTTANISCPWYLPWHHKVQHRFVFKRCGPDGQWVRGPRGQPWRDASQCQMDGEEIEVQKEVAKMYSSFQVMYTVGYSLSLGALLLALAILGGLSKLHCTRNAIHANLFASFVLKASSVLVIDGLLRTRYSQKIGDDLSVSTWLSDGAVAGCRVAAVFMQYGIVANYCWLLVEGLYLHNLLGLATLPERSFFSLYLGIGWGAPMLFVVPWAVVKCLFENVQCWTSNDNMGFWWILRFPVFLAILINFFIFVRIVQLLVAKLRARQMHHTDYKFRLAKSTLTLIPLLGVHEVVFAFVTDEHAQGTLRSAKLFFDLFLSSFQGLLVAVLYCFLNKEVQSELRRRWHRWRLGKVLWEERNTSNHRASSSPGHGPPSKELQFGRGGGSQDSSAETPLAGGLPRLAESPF

Row | cAMP EC50 (assay 1) [pM] | Binder
16 | 8 | B1
17 | 189 | B3
18 | 4520 | B4
19 | 1.77 | B5
20 | 1490 | B8
21 | 1930 | B6
22 | 42.9 | B7
